Assay [1] concerns SIRPα^−/− and CD47^−/− mice. Nature of the assay: Acute anemia and splenomegaly in mice deficient of CD47-SIRPα-mediated inhibition under inflammatory conditions. Format: in vivo, mouse. The text has this: FIGS. 1A-1K illustrate our assessment of acute anemia in mice deficient of CD47-SIRPα-mediated inhibition under inflammatory conditions. FIG. 1A includes a schematic drawing of a wild type (WT) and targeted allele of SIRPα (“SIRPα”) and data related to the generation of SIRPα “knock out” (KO) mice. […] Western blot (WB) analysis confirmed the depletion of SIRPα (˜120 kDa) protein in bone marrow leukocytes from SIRPα^−/− mice. FIG. 1B includes a photograph of intestinal tissue and a line graph charting the change in body weight of mice in which colitis had been induced by treatment with 1% or 2% DSS. […] FIGS. 1C and 1D include data related to acute anemia and splenomegaly developed in SIRPα^−/− mice with colitis. WT mice and SIRPα^−/− mice treated with DSS (2% DSS for WT and 1% DSS for SIRPα^−/−) for 10 days were analyzed for the presence of […] (FIG. 1C) and the content of hemoglobin in peripheral blood (FIG. 1D). FIG. 1E includes a panel of photomicrographs in which hematoxylin and eosin (H&E) was used to stain sections of spleens from WT and SIRPα^−/− mice treated with 2% and 1% DSS for 10 days. The bar graph of FIG. 1E illustrates the hemoglobin content in the spleens of WT and SIRPα^−/− mice treated with water or DSS. FIG. 1F is a pair of line graphs showing the time course over which anemia developed in SIRPα^−/− mice when colitis was induced with DSS and the levels of IL-17 in the serum over that same period of time. FIG. 1G is a diagram showing that IL-17 neutralization ameliorates anemia and splenomegaly in SIRPα^−/− mice with colitis. An anti-IL-17 antibody (10 μg, i.v.) was given on days 6 and 8 (arrows) during DSS-induction of colitis. FIG. 1H is a diagram showing that IL-17-containing colitic serum induces acute anemia in SIRPα^−/− mice. Serum samples collected from healthy (Ctl.) and colitic WT mice (2% DSS, 10 d) were administered to healthy SIRPα^−/− mice (i.v., 3×, arrows) with or without an anti-IL-17 antibody. FIGS. 1I and 1J are illustrative graphs showing that IL-17 directly induces acute anemia and splenomegaly in SIRPα^−/− mice and Cd47^−/− mice. Healthy mice were given recombinant IL-17 (10 μg/kg, i.v.) on days 1 and 3 (arrows, FIG. 1J); anemia and splenomegaly were analyzed on day 5 (FIG. 1I) or in a time course manner (FIG. 1J). FIG. 1K includes diagrams showing that acute anemia and splenomegaly in SIRPα^−/− and Cd47^−/− mice under zymosan-peritonitis (3×, every other day), IL-6 administration ([…], i.v.), LPS (0.25 mg/kg, i.p.), and CFA (1×, s.c.) administrations. Error bars are ±SEM **P<0.01, ***P<0.001 vs. control or the beginning time point. Data presented in each panel represent at least three independent experiments with n≥4, if applicable.
Hemoglobin assay: To assay blood hemoglobin, 10 μl of whole blood were obtained from the tail vein followed by lysis in 1 ml distilled water. After centrifugation (13,000 rpm, 30 min), the hemoglobin-containing supernatants were collected and measured for the optical density at the wavelength of 540 nm.
Animal inflammation models: To induce peritonitis, mice (6-8 wk, 20-22 g) were intraperitoneally injected with 0.5 mg zymosan A (Sigma) in 0.5 ml sterile PBS followed by euthanasia at 2, 4, 6 and 8 hours. […] The colitic condition was then assessed by observing diarrhea, measuring body weight loss, increases of inflammatory cytokines, the shortage of the large intestine and intestinal tissue analyses (after euthanasia). […]

Another assay has as its system SIRPα. Kind of assay: SIRPα immunoprecipitation and WB detection of SIRPα ITIM phosphorylation and SHP-1 association. In kind it is cell-based, mouse. The settings on record: WT macrophages after LPS or IL-17 treatment. As for the experimental part:
FIGS. 4A-4E include data related to our experiments on macrophage phagocytic plasticity. FIG. 4A is a panel of illustrative line graphs showing that IL-10 inhibits macrophage phagocytosis toward “self.” PEMs were treated with LPS and activating cytokines along with various concentrations of IL-10 before testing their ability to phagocytose RBCs. FIG. 4B illustrates the phagocytic plasticity of WT red pulp macrophages. […] Treatments of cultured macrophages with LPS and IL-17 re-elicited their phagocytosis toward RBCs. […] Error bars are ±SEM. ***P<0.001 vs. freshly isolated splenic macrophages. FIG. 4D includes microscopic images of RBC phagocytosis by LPS- and IL-17-treated splenic macrophages. […] WT PEMs treated with LPS or IL-17 were further treated with Cd47^+ RBCs or Cd47-AP (10 min, 37° C.) followed by cell lysis, SIRPα immunoprecipitation, and WB detection of SIRPα phosphorylation (SIRPα^pY) and SHP-1 association. Data presented in each panel represent at least three independent experiments with n≥4, if applicable.
FIGS. 5A-5H include data related to our experiments on the role of Syk in phagocytic activation. […] PEMs were treated with LPS and cytokines in the presence of various inhibitors. After washing, inhibitor-free macrophages were tested for phagocytosis toward RBCs. […] PEMs treated with LPS and activating cytokines, or together with IL-10, were tested for total Syk and phosphorylated Syk (Syk^pY, specific at Y519/520). FIG. 5D describes PMA-induced macrophages phagocytosis toward RBCs. WT and SIRPα^−/− PEMs were treated with PMA (37° C., 30 min) before testing phagocytosis toward RBCs. FIG. 5E is a schematic depiction of PKC-Syk-mediated macrophage phagocytic activation toward self. […] Left: Inhibition of Syk by piceatannol and R406 prevented PMA-induced phagocytic activation. […] Error bars are ±SEM. ***P<0.001 vs. the respective controls. […] LPS-treated WT PEMs were further briefly treated with pervanadate before testing for phagocytosis toward RBCs. Error bars are ±SEM. ***P<0.001 vs. the respective controls. […]

Regarding lipopolysaccharide [LPS], the anemia and splenomegaly entry in assay [1] (SIRPα^−/− and CD47^−/− mice, zymosan 3 times every other day, IL-6 2×10 μg/kg i.v., LPS 0.25 mg/kg i.p., CFA s.c.) was “induced anemia and splenomegaly”. Moreover, the “SIRPα ITIM phosphorylation and SHP-1 association” value with SIRPα is “a level of SIRPα ITIM phosphorylation and SHP-1 association even in the absence of extracellular CD47 ligation”.

B1: IL-17: recombinant murine cytokine interleukin IL-17 (also known as IL-17A), PeproTech (protein, UniProt Q62386 26-158, looked up)
Interleukin-17A: AAIIPQSSACPNTEAKDFLQNVKVNLKVFNSLGAKVSSRRPSDYLNRSTSPWTLHRNEDPDRYPSVIWEAQCRHQRCVNAEGKLDHHMNSVLIQQEILVLKREPESCPFTFRVEKMLVGVGCTCVASIVRQAA
Turning to B1, the “acute anemia and splenomegaly” value is “induced acute anemia and splenomegaly” in assay [1] (CD47^−/− mice, IL-17 injection); “directly induced acute anemia and splenomegaly” in assay [1] (healthy SIRPα^−/− mice, 2×10 μg/kg, i.v.). In addition, the “SIRPα ITIM phosphorylation and SHP-1 association” value in the assay on SIRPα was “a level of SIRPα ITIM phosphorylation and SHP-1 association even in the absence of extracellular CD47 ligation”.

The values are drawn from patent publication US11026972B2, “Methods for generating macrophages with enhanced cancer phagocytosis” (Georgia State University Research Foundation, Inc., priority 2016, dated 2021).
